Source: patent US20050095231A1

Biological target: artificial receptor (AR) on 293/6H cells: anti-5His single chain antibody fused with the transmembrane domain of the PDGF receptor
Test: cell-based or functional assay

fiber-fibritin-6His chimera (FF/6H), as carried by Ad5LucFF/6H virions
Ad5LucFF/6H-expressed luciferase activities in 293/6H cells expressing AR compared to parental 293 cells (orders of magnitude): 2
